Measurements: the supplement of paper PMC7877785
± gives the uncertainty stated by the source.

Assay: self-splicing fitness, log relative to wild type (ln ratio); higher = more splicing; Tetrahymena group I intron in knt gene, E. coli kanamycin selection, DiMSum; sequences stand for … in CUCUCU…GGAGGGAAAAGUUAUCAGGCAUGCACCUGGUAGCUAGUCUUUAAACCAAUAGAUUGCAUCGGUUUAAAAGGCAAGACCGUCAAAUUGCGGGAAAGGGGUCAACAGCCGUUCAGUACCAAGUCUCAGGGGAAACUUUGAGAUGGCCUUGCAAAGGGUAUGGUAAUAAGCUGACGGACAUGGUCCUAACCACGCAGCCAAGUCCUAAGUCAACAGAUCUUCUGUUGAUAUGGAUGCAGUUCACAGACUAAAUGUCGGUCGGGGAAGAUGUAUUCUUCUCAUAAGAUAUAGUCGGACCUCUCCUUAAUGGGAGCUAGCGGAUGAAGUGAUGCAACACUGGAGCCGCUGGGAACUAAUUUGUAUGCGAAAGUAUAUUGAUUAGUUUUGGAGUACUCGUGGUCG
Summary of the method: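 Library with all eight P1ex-region intron nucleotides randomised, intron inside the knt kanamycin-resistance gene on pET-22b(+), in E. coli BL21(DE3). Cells grew overnight at 37°C or 30°C on LB agar with or without 25 μg/mL kanamycin (plus 100 μg/mL carbenicillin, 50 μM IPTG, 0.2% rhamnose), in six replicate transformations. Pooled colonies were amplicon-sequenced on Illumina HiSeq 2500. DiMSum fitness is the error-weighted combination of wild-type-normalised replicate fold changes, kanamycin versus none.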

Sequence	self-splicing fitness (ln) (30 °C)	self-splicing fitness (ln) (37 °C)
GUGAAGCAAUAUUACGCGCC	-4.14 ± 0.33	-2.69 ± 0.41
GUGAAGCAAUAUUACGCUAG	-0.945 ± 0.14	0.0205 ± 0.23
GUGAAGCAAUAUUACGCUGU	-2.74 ± 0.13	-1.29 ± 0.12
GUGAAGCAAUAUUACGGAAU	-1.06 ± 0.18	-0.308 ± 0.18
GUGAAGCAAUAUUACGGAGA	-2.03 ± 0.32	-1.19 ± 0.47
GUGAAGCAAUAUUACGGCGA	0.0822 ± 0.15	0.297 ± 0.18
GUGAAGCAAUAUUACGGUAU	-1.47 ± 0.076	-0.418 ± 0.1
GUGAAGCAAUAUUACGGUGA	-0.922 ± 0.11	0.58 ± 0.14
GUGAAGCAAUAUUACGUACG	-0.64 ± 0.16	0.312 ± 0.15
GUGAAGCAAUAUUACGUCCG	-0.484 ± 0.15	-0.103 ± 0.17
GUGAAGCAAUAUUACGUCCU	-0.476 ± 0.12	0.382 ± 0.18
GUGAAGCAAUAUUACGUCUG	-1.29 ± 0.12	-0.0242 ± 0.2
GUGAAGCAAUAUUACGUGGC	-2.6 ± 0.14	-2.41 ± 0.23
GUGAAGCAAUAUUACGUGUC	-2.89 ± 0.11	-1.83 ± 0.12
GUGAAGCAAUAUUACGUUGC	–	-1.92 ± 0.46
GUGAAGCAAUAUUACGUUUA	-1.01 ± 0.064	-0.109 ± 0.11
GUGCAGCAAUAUUACGAUAA	-2.55 ± 0.16	-1.04 ± 0.13
GUGCAGCAAUAUUACGAUAU	-0.385 ± 0.091	-0.244 ± 0.12
GUGCAGCAAUAUUACGAUCG	-1.95 ± 0.12	-1.45 ± 0.1
GUGCAGCAAUAUUACGCCAG	-2.82 ± 0.47	–
GUGCAGCAAUAUUACGCGUC	-3.39 ± 0.3	-1.4 ± 0.21
GUGCAGCAAUAUUACGCUAA	-0.546 ± 0.17	0.418 ± 0.15
GUGCAGCAAUAUUACGCUAU	-2.36 ± 0.15	-1.14 ± 0.12
GUGCAGCAAUAUUACGGCGU	-1.58 ± 0.096	-1.93 ± 0.17
GUGCAGCAAUAUUACGGGGU	-2.79 ± 0.22	-2.19 ± 0.24

Sequence	self-splicing fitness (ln) (30 °C)	self-splicing fitness (ln) (37 °C)
GUGCAGCAAUAUUACGGUUA	-0.723 ± 0.092	-0.164 ± 0.089
GUGCAGCAAUAUUACGGUUU	-0.309 ± 0.062	-0.000827 ± 0.076
GUGCAGCAAUAUUACGUACC	–	-2.41 ± 0.32
GUGCAGCAAUAUUACGUACU	-2.7 ± 0.39	-0.869 ± 0.38
GUGCAGCAAUAUUACGUCGU	-1.01 ± 0.12	-0.193 ± 0.14
GUGCAGCAAUAUUACGUGAA	-0.187 ± 0.1	-1.19 ± 0.14
GUGCAGCAAUAUUACGUGCG	-2.56 ± 0.1	-2.06 ± 0.14
GUGCAGCAAUAUUACGUUGA	-1.49 ± 0.13	-0.806 ± 0.14
GUGGAGCAAUAUUACGAAUA	-4.24 ± 0.47	-2.33 ± 0.38
GUGGAGCAAUAUUACGACCA	–	-1.24 ± 0.35
GUGGAGCAAUAUUACGAUAC	-1.47 ± 0.26	-0.631 ± 0.42
GUGGAGCAAUAUUACGAUUC	-0.681 ± 0.31	0.0106 ± 0.22
GUGGAGCAAUAUUACGCAAA	-2.28 ± 0.43	-1.83 ± 0.25
GUGGAGCAAUAUUACGCCUA	-3 ± 0.29	-1.96 ± 0.2
GUGGAGCAAUAUUACGCGGA	–	-1.85 ± 0.24
GUGGAGCAAUAUUACGCGGU	-1.16 ± 0.3	-0.344 ± 0.29
GUGGAGCAAUAUUACGCGUU	-2.56 ± 0.16	-1.94 ± 0.23
GUGGAGCAAUAUUACGCUGG	-3.52 ± 0.37	-2.41 ± 0.33
GUGGAGCAAUAUUACGCUUU	-3.84 ± 0.32	-2.41 ± 0.27
GUGGAGCAAUAUUACGGCCU	-1.74 ± 0.19	-0.55 ± 0.3
GUGGAGCAAUAUUACGGGAU	-4.12 ± 0.23	-1.99 ± 0.24
GUGGAGCAAUAUUACGGUUG	-3.04 ± 0.15	–
GUGGAGCAAUAUUACGUAAU	-2.23 ± 0.13	-0.812 ± 0.13
GUGGAGCAAUAUUACGUACA	-2.11 ± 0.33	–
GUGGAGCAAUAUUACGUACU	-2.19 ± 0.37	-2.2 ± 0.32

Sequence	self-splicing fitness (ln) (30 °C)	self-splicing fitness (ln) (37 °C)
GUGGAGCAAUAUUACGUAUC	-2.13 ± 0.2	-0.331 ± 0.17
GUGGAGCAAUAUUACGUAUG	-3.15 ± 0.24	-2.3 ± 0.24
GUGGAGCAAUAUUACGUGAG	-2.1 ± 0.19	-2.39 ± 0.21
GUGGAGCAAUAUUACGUGUC	-3.84 ± 0.22	-2.64 ± 0.24
GUGGAGCAAUAUUACGUUAA	-2.17 ± 0.19	-2.41 ± 0.26
GUGUAGCAAUAUUACGAGCG	–	-0.927 ± 0.34
GUGUAGCAAUAUUACGAUAA	-2.6 ± 0.19	-0.508 ± 0.12
GUGUAGCAAUAUUACGAUGA	-1.16 ± 0.087	-0.756 ± 0.094
GUGUAGCAAUAUUACGAUUC	0.325 ± 0.094	-0.738 ± 0.088
GUGUAGCAAUAUUACGCAUU	-2.29 ± 0.3	-1.97 ± 0.28
GUGUAGCAAUAUUACGCGUG	-3.82 ± 0.26	-1.49 ± 0.15
GUGUAGCAAUAUUACGCUAG	-3.53 ± 0.31	-1.88 ± 0.36
GUGUAGCAAUAUUACGCUUC	-2.71 ± 0.28	-3.09 ± 0.47
GUGUAGCAAUAUUACGGAAA	-3 ± 0.28	-1.42 ± 0.27
GUGUAGCAAUAUUACGGAAU	-1.42 ± 0.13	-1.64 ± 0.25
GUGUAGCAAUAUUACGGCAG	–	-0.824 ± 0.23
GUGUAGCAAUAUUACGGGAC	-3.44 ± 0.32	-2.03 ± 0.28
GUGUAGCAAUAUUACGUCCG	-3.16 ± 0.33	-0.647 ± 0.22
GUGUAGCAAUAUUACGUCCU	-0.899 ± 0.15	-0.148 ± 0.19
GUGUAGCAAUAUUACGUGGG	-4.25 ± 0.21	-4.08 ± 0.26
GUGUAGCAAUAUUACGUGUA	-2.62 ± 0.14	-1.22 ± 0.11
GUGUAGCAAUAUUACGUUGC	-1.92 ± 0.22	-2.28 ± 0.46
GUUAAGCAAUAUUACGACAA	-0.704 ± 0.29	-1.12 ± 0.26
GUUAAGCAAUAUUACGACAG	-2.85 ± 0.28	-1.82 ± 0.33
GUUAAGCAAUAUUACGACCA	-0.467 ± 0.21	-1.67 ± 0.17

Sequence	self-splicing fitness (ln) (30 °C)	self-splicing fitness (ln) (37 °C)
GUUAAGCAAUAUUACGACUG	-2.57 ± 0.2	-2.53 ± 0.4
GUUAAGCAAUAUUACGAUAU	-1.02 ± 0.067	-0.0864 ± 0.074
GUUAAGCAAUAUUACGCAAC	–	-0.0162 ± 0.34
GUUAAGCAAUAUUACGCCGA	-1.83 ± 0.19	-0.947 ± 0.18
GUUAAGCAAUAUUACGCCGG	–	-0.148 ± 0.27
GUUAAGCAAUAUUACGCCGU	-1.42 ± 0.19	-1.39 ± 0.23
GUUAAGCAAUAUUACGCCUC	-1.41 ± 0.25	0.196 ± 0.31
GUUAAGCAAUAUUACGCGAG	-0.369 ± 0.1	-0.341 ± 0.14
GUUAAGCAAUAUUACGCGCA	-0.293 ± 0.12	0.115 ± 0.15
GUUAAGCAAUAUUACGCUCA	-0.759 ± 0.1	0.0333 ± 0.13
GUUAAGCAAUAUUACGCUGG	-0.613 ± 0.17	-0.0646 ± 0.2
GUUAAGCAAUAUUACGCUUA	-3.09 ± 0.26	-2.71 ± 0.25
GUUAAGCAAUAUUACGGAGG	-4 ± 0.23	-1.56 ± 0.19
GUUAAGCAAUAUUACGGAGU	-3.71 ± 0.23	-0.486 ± 0.13
GUUAAGCAAUAUUACGGCAC	-0.637 ± 0.12	0.0416 ± 0.15
GUUAAGCAAUAUUACGGUAG	-2.87 ± 0.17	-1.69 ± 0.17
GUUAAGCAAUAUUACGGUCA	-0.91 ± 0.098	-0.943 ± 0.092
GUUAAGCAAUAUUACGUAAA	-1.45 ± 0.12	-1.43 ± 0.12
GUUAAGCAAUAUUACGUGCA	-1.44 ± 0.1	-0.144 ± 0.11
GUUAAGCAAUAUUACGUGUU	-3.27 ± 0.14	-1.11 ± 0.1
GUUAAGCAAUAUUACGUUGA	-3.87 ± 0.33	-1.43 ± 0.25
GUUAAGCAAUAUUACGUUUC	-1.75 ± 0.21	-1.29 ± 0.18
GUUCAGCAAUAUUACGAAUA	-1.01 ± 0.12	-0.181 ± 0.1
